Laboratory results taken from patent US10239925B2, “Peptides and combination of peptides for use in immunotherapy against ovarian cancer and other cancers” (IMMATICS BIOTECHNOLOGIES GMBH, priority 2015, dated 2019).

Biological target: HLA-A*02:01 (Homo sapiens, UniProt P04439, D140Y/D185E/D98H/E176V/E277Q/G131W/G231S/I119V/I121R/I166T/I218V/L300P/L318F/N151K/N90K/P208A/P217A/Q86G/Q94H/R138H/R169H/T345S)
Assay: MHC binding assay (UV-ligand exchange, anti-β2m ELISA, peptide exchange yield)
Settings: binding to HLA-A*02:01
Summary of the method: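 Peptide-MHC complexes formed by UV-ligand exchange, cleaving a UV-sensitive placeholder peptide in favour of the test peptide. Exchange yield measured by ELISA: monomers diluted 100-fold onto streptavidin-coated plates, 1 h 37 °C, detected with 2 ug/ml HRP anti-β2m and TMB, absorbance at 450 nm.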

Substance	Peptide exchange (MHC class I binding score, peptide exchange yield)
361 (ALYELEGTTV; listed as Homo sapiens) [compound 361]	“+++” (>50 = +++)
362 (TLYGLSVLL; listed as Homo sapiens) [compound 362]	“+++” (>50 = +++)
363 (KVLDVSDLESV; listed as Homo sapiens) [compound 363]	“++” (>20% = ++)
364 (LLQNEQFEL; listed as Homo sapiens) [compound 364]	“+++” (>50 = +++)
365 (YVIDQGETDVYV; listed as Homo sapiens) [compound 365]	“+++” (>50 = +++)
366 (RLLDMGETDLML; listed as Homo sapiens) [compound 366]	“+++” (>50 = +++)
367 (SLQNHNHQL; listed as Homo sapiens) [compound 367]	“+++” (>50 = +++)
369 (GLFPEHLIDV; listed as Homo sapiens) [compound 369]	“+++” (>50 = +++)
370 (SLLQDLVSV; listed as Homo sapiens) [compound 370]	“+++” (>50 = +++)
371 (FLQAHLHTA; listed as Homo sapiens) [compound 371]	“++++” (>75% = ++++)
372 (TMLLNIPLV; listed as Homo sapiens) [compound 372]	“++” (>20% = ++)
373 (SLLEDKGLAEV; listed as Homo sapiens) [compound 373]	“++” (>20% = ++)
374 (FLLQQHLISA; listed as Homo sapiens) [compound 374]	“++” (>20% = ++)
375 (SLTETIEGV; listed as Homo sapiens) [compound 375]	“++” (>20% = ++)
376 (AMFESSQNVLL; listed as Homo sapiens) [compound 376]	“++” (>20% = ++)
377 (FLLDSSASV; listed as Homo sapiens) [compound 377]	“++” (>20% = ++)
378 (ALGYFVPYV; listed as Homo sapiens) [compound 378]	“+++” (>50 = +++)
379 (IMEGTLTRV; listed as Homo sapiens) [compound 379]	“++” (>20% = ++)
380 (TLIEDEIATI; listed as Homo sapiens) [compound 380]	“++” (>20% = ++)
381 (FIDEAYVEV; listed as Homo sapiens) [compound 381]	“++” (>20% = ++)
382 (ALQNYIKEA; listed as Homo sapiens) [compound 382]	“++” (>20% = ++)

Substance	Peptide exchange (MHC class I binding score, peptide exchange yield)
383 (ALLELENSVTL; listed as Homo sapiens) [compound 383]	“+++” (>50 = +++)
385 (SLLEQGLVEA; listed as Homo sapiens) [compound 385]	“++” (>20% = ++)
386 (ILFRYPLTI; listed as Homo sapiens) [compound 386]	“+++” (>50 = +++)
387 (ALFQATAEV; listed as Homo sapiens) [compound 387]	“++++” (>75% = ++++)
388 (SLTIDGIRYV; listed as Homo sapiens) [compound 388]	“+++” (>50 = +++)
389 (LLADVTHLL; listed as Homo sapiens) [compound 389]	“++” (>20% = ++)
390 (ALFMKQIYL; listed as Homo sapiens) [compound 390]	“+++” (>50 = +++)
391 (YVYPQRLNFV; listed as Homo sapiens) [compound 391]	“+++” (>50 = +++)
392 (ALLHPQGFEV; listed as Homo sapiens) [compound 392]	“++” (>20% = ++)
393 (GLLDTQTSQVLTA; listed as Homo sapiens) [compound 393]	“++” (>20% = ++)
394 (LLAVIGGLVYL; listed as Homo sapiens) [compound 394]	“+++” (>50 = +++)
396 (ALLPDLPAL; listed as Homo sapiens) [compound 396]	“+++” (>50 = +++)
397 (YLFGERLLEC; listed as Homo sapiens) [compound 397]	“+++” (>50 = +++)
398 (KLLEEDGTIITL; listed as Homo sapiens) [compound 398]	“++” (>20% = ++)
399 (YLFEPLYHV; listed as Homo sapiens) [compound 399]	“+++” (>50 = +++)
400 (SLLTEQDLWTV; listed as Homo sapiens) [compound 400]	“++” (>20% = ++)
401 (ILLDDTGLAYI; listed as Homo sapiens) [compound 401]	“+++” (>50 = +++)
402 (VLFSGALLGL; listed as Homo sapiens) [compound 402]	“++” (>20% = ++)
403 (KLYDRILRV; listed as Homo sapiens) [compound 403]	“++” (>20% = ++)
405 (ALYDVFLEV; listed as Homo sapiens) [compound 405]	“++” (>20% = ++)
407 (YLMDLINFL; listed as Homo sapiens) [compound 407]	“+++” (>50 = +++)

Substance	Peptide exchange (MHC class I binding score, peptide exchange yield)
408 (VLDDSIYLV; listed as Homo sapiens) [compound 408]	“++” (>20% = ++)
409 (LLDAMNYHL; listed as Homo sapiens) [compound 409]	“++” (>20% = ++)
412 (YLDDLNEGVYI; listed as Homo sapiens) [compound 412]	“++” (>20% = ++)
426 (RLADKSVLV; listed as Homo sapiens) [compound 426]	“+++” (>50 = +++)
427 (ALLPLSPYL; listed as Homo sapiens) [compound 427]	“+++” (>50 = +++)
428 (KLGHTDILVGV; listed as Homo sapiens) [compound 428]	“++” (>20% = ++)
429 (GLVNDLARV; listed as Homo sapiens) [compound 429]	“++” (>20% = ++)
430 (HLYSSIEHLTT; listed as Homo sapiens) [compound 430]	“+++” (>50 = +++)
431 (SLVNVVPKL; listed as Homo sapiens) [compound 431]	“++” (>20% = ++)
432 (TLIEESAKV; listed as Homo sapiens) [compound 432]	“++” (>20% = ++)
433 (AMLNEPWAV; listed as Homo sapiens) [compound 433]	“+++” (>50 = +++)
434 (KVSNSGITRV; listed as Homo sapiens) [compound 434]	“++” (>20% = ++)
436 (HLAEVSAEV; listed as Homo sapiens) [compound 436]	“+++” (>50 = +++)
437 (SMAPGLVIQAV; listed as Homo sapiens) [compound 437]	“+++” (>50 = +++)
438 (KLLPLAGLYL; listed as Homo sapiens) [compound 438]	“++++” (>75% = ++++)
439 (YLLQEIYGI; listed as Homo sapiens) [compound 439]	“+++” (>50 = +++)
440 (ALADGVTMQV; listed as Homo sapiens) [compound 440]	“++” (>20% = ++)
441 (ALLENPKMEL; listed as Homo sapiens) [compound 441]	“+++” (>50 = +++)
442 (GLLGGGGVLGV; listed as Homo sapiens) [compound 442]	“+++” (>50 = +++)
